# Data taken from patent US20260001928A1 (CORTERIA PHARMACEUTICALS, priority 2022, published 2026).
# *1 amine or outer side, *2 acyl side, *3 side chain or, on linkers, in order; H or OH if unused. Where no end group is shown, it is not given here. Side-chain parts run from the residue outwards. [ ]: non-standard residue; d: D form. The star is where a group is joined. C18 diacid = O=C(O)CCCCCCCCCCCCCCCCC(=O)*; C16 diacid = O=C(O)CCCCCCCCCCCCCCC(=O)*; γGlu = O=C(O)[C@H](CCC(=O)[*:2])N[*:1]; αMeL = CC(C)C[C@](C)(N)C(=O)O; AEEA = NCCOCCOCC(=O)O; Aib = CC(C)(N)C(=O)O
# B1: SEQ ID NO 25 (peptide)
# peptide: IVLSLDVPIKLK([AEEA-AEEA-γGlu-γGlu-C18 diacid])Q[Aib]LLKQERQKKQREQAEKN[Aib]QILEQV-NH2
# modifications: N-terminus assumed
# SMILES: CC[C@H](C)[C@H](N)C(=O)N[C@H](C(=O)N[C@@H](CC(C)C)C(=O)N[C@@H](CO)C(=O)N[C@@H](CC(C)C)C(=O)N[C@@H](CC(=O)O)C(=O)N[C@H](C(=O)N1CCC[C@H]1C(=O)N[C@H](C(=O)N[C@@H](CCCCN)C(=O)N[C@@H](CC(C)C)C(=O)N[C@@H](CCCCNC(=O)COCCOCCNC(=O)COCCOCCNC(=O)CC[C@H](NC(=O)CC[C@H](NC(=O)CCCCCCCCCCCCCCCCC(=O)O)C(=O)O)C(=O)O)C(=O)N[C@@H](CCC(N)=O)C(=O)NC(C)(C)C(=O)N[C@@H](CC(C)C)C(=O)N[C@@H](CC(C)C)C(=O)N[C@@H](CCCCN)C(=O)N[C@@H](CCC(N)=O)C(=O)N[C@@H](CCC(=O)O)C(=O)N[C@@H](CCCNC(=N)N)C(=O)N[C@@H](CCC(N)=O)C(=O)N[C@@H](CCCCN)C(=O)N[C@@H](CCCCN)C(=O)N[C@@H](CCC(N)=O)C(=O)N[C@@H](CCCNC(=N)N)C(=O)N[C@@H](CCC(=O)O)C(=O)N[C@@H](CCC(N)=O)C(=O)N[C@@H](C)C(=O)N[C@@H](CCC(=O)O)C(=O)N[C@@H](CCCCN)C(=O)N[C@@H](CC(N)=O)C(=O)NC(C)(C)C(=O)N[C@@H](CCC(N)=O)C(=O)N[C@H](C(=O)N[C@@H](CC(C)C)C(=O)N[C@@H](CCC(=O)O)C(=O)N[C@@H](CCC(N)=O)C(=O)N[C@H](C(N)=O)C(C)C)[C@@H](C)CC)[C@@H](C)CC)C(C)C)C(C)C
# B2: SEQ ID NO 26 (peptide)
# peptide: Ac-IVLSLDVPIKLK([AEEA-AEEA-γGlu-γGlu-C18 diacid])Q[Aib]LLKQERQKKQREQAEKN[Aib]QILEQV-NH2
# SMILES: CC[C@H](C)[C@H](NC(C)=O)C(=O)N[C@H](C(=O)N[C@@H](CC(C)C)C(=O)N[C@@H](CO)C(=O)N[C@@H](CC(C)C)C(=O)N[C@@H](CC(=O)O)C(=O)N[C@H](C(=O)N1CCC[C@H]1C(=O)N[C@H](C(=O)N[C@@H](CCCCN)C(=O)N[C@@H](CC(C)C)C(=O)N[C@@H](CCCCNC(=O)COCCOCCNC(=O)COCCOCCNC(=O)CC[C@H](NC(=O)CC[C@H](NC(=O)CCCCCCCCCCCCCCCCC(=O)O)C(=O)O)C(=O)O)C(=O)N[C@@H](CCC(N)=O)C(=O)NC(C)(C)C(=O)N[C@@H](CC(C)C)C(=O)N[C@@H](CC(C)C)C(=O)N[C@@H](CCCCN)C(=O)N[C@@H](CCC(N)=O)C(=O)N[C@@H](CCC(=O)O)C(=O)N[C@@H](CCCNC(=N)N)C(=O)N[C@@H](CCC(N)=O)C(=O)N[C@@H](CCCCN)C(=O)N[C@@H](CCCCN)C(=O)N[C@@H](CCC(N)=O)C(=O)N[C@@H](CCCNC(=N)N)C(=O)N[C@@H](CCC(=O)O)C(=O)N[C@@H](CCC(N)=O)C(=O)N[C@@H](C)C(=O)N[C@@H](CCC(=O)O)C(=O)N[C@@H](CCCCN)C(=O)N[C@@H](CC(N)=O)C(=O)NC(C)(C)C(=O)N[C@@H](CCC(N)=O)C(=O)N[C@H](C(=O)N[C@@H](CC(C)C)C(=O)N[C@@H](CCC(=O)O)C(=O)N[C@@H](CCC(N)=O)C(=O)N[C@H](C(N)=O)C(C)C)[C@@H](C)CC)[C@@H](C)CC)C(C)C)C(C)C
# B3: SEQ ID NO 97 (peptide)
# peptide: Ac-IVLSLDVPIKLK([AEEA-AEEA-γGlu-C18 diacid])KILLEQEKQKKQREQAETN[Aib]QILAQV-NH2
# SMILES: CC[C@H](C)[C@H](NC(C)=O)C(=O)N[C@H](C(=O)N[C@@H](CC(C)C)C(=O)N[C@@H](CO)C(=O)N[C@@H](CC(C)C)C(=O)N[C@@H](CC(=O)O)C(=O)N[C@H](C(=O)N1CCC[C@H]1C(=O)N[C@H](C(=O)N[C@@H](CCCCN)C(=O)N[C@@H](CC(C)C)C(=O)N[C@@H](CCCCNC(=O)COCCOCCNC(=O)COCCOCCNC(=O)CC[C@H](NC(=O)CCCCCCCCCCCCCCCCC(=O)O)C(=O)O)C(=O)N[C@@H](CCCCN)C(=O)N[C@H](C(=O)N[C@@H](CC(C)C)C(=O)N[C@@H](CC(C)C)C(=O)N[C@@H](CCC(=O)O)C(=O)N[C@@H](CCC(N)=O)C(=O)N[C@@H](CCC(=O)O)C(=O)N[C@@H](CCCCN)C(=O)N[C@@H](CCC(N)=O)C(=O)N[C@@H](CCCCN)C(=O)N[C@@H](CCCCN)C(=O)N[C@@H](CCC(N)=O)C(=O)N[C@@H](CCCNC(=N)N)C(=O)N[C@@H](CCC(=O)O)C(=O)N[C@@H](CCC(N)=O)C(=O)N[C@@H](C)C(=O)N[C@@H](CCC(=O)O)C(=O)N[C@H](C(=O)N[C@@H](CC(N)=O)C(=O)NC(C)(C)C(=O)N[C@@H](CCC(N)=O)C(=O)N[C@H](C(=O)N[C@@H](CC(C)C)C(=O)N[C@@H](C)C(=O)N[C@@H](CCC(N)=O)C(=O)N[C@H](C(N)=O)C(C)C)[C@@H](C)CC)[C@@H](C)O)[C@@H](C)CC)[C@@H](C)CC)C(C)C)C(C)C
# B4: SEQ ID NO 19 (peptide)
# peptide: Ac-IVLSLDVPIK[αMeL]K([γGlu-C16 diacid])QILLKQERQKKQREQAEKN[Aib]QILEQV-NH2
# SMILES: CC[C@H](C)[C@H](NC(C)=O)C(=O)N[C@H](C(=O)N[C@@H](CC(C)C)C(=O)N[C@@H](CO)C(=O)N[C@@H](CC(C)C)C(=O)N[C@@H](CC(=O)O)C(=O)N[C@H](C(=O)N1CCC[C@H]1C(=O)N[C@H](C(=O)N[C@@H](CCCCN)C(=O)N[C@@](C)(CC(C)C)C(=O)N[C@@H](CCCCNC(=O)CC[C@H](NC(=O)CCCCCCCCCCCCCCC(=O)O)C(=O)O)C(=O)N[C@@H](CCC(N)=O)C(=O)N[C@H](C(=O)N[C@@H](CC(C)C)C(=O)N[C@@H](CC(C)C)C(=O)N[C@@H](CCCCN)C(=O)N[C@@H](CCC(N)=O)C(=O)N[C@@H](CCC(=O)O)C(=O)N[C@@H](CCCNC(=N)N)C(=O)N[C@@H](CCC(N)=O)C(=O)N[C@@H](CCCCN)C(=O)N[C@@H](CCCCN)C(=O)N[C@@H](CCC(N)=O)C(=O)N[C@@H](CCCNC(=N)N)C(=O)N[C@@H](CCC(=O)O)C(=O)N[C@@H](CCC(N)=O)C(=O)N[C@@H](C)C(=O)N[C@@H](CCC(=O)O)C(=O)N[C@@H](CCCCN)C(=O)N[C@@H](CC(N)=O)C(=O)NC(C)(C)C(=O)N[C@@H](CCC(N)=O)C(=O)N[C@H](C(=O)N[C@@H](CC(C)C)C(=O)N[C@@H](CCC(=O)O)C(=O)N[C@@H](CCC(N)=O)C(=O)N[C@H](C(N)=O)C(C)C)[C@@H](C)CC)[C@@H](C)CC)[C@@H](C)CC)C(C)C)C(C)C
# B5: SEQ ID NO 20 (peptide)
# peptide: Ac-IVLSLDVPIK[αMeL]K([γGlu-C16 diacid])Q[Aib]LLKQERQKKQREQAEKN[Aib]QILEQV-NH2
# SMILES: CC[C@H](C)[C@H](NC(C)=O)C(=O)N[C@H](C(=O)N[C@@H](CC(C)C)C(=O)N[C@@H](CO)C(=O)N[C@@H](CC(C)C)C(=O)N[C@@H](CC(=O)O)C(=O)N[C@H](C(=O)N1CCC[C@H]1C(=O)N[C@H](C(=O)N[C@@H](CCCCN)C(=O)N[C@@](C)(CC(C)C)C(=O)N[C@@H](CCCCNC(=O)CC[C@H](NC(=O)CCCCCCCCCCCCCCC(=O)O)C(=O)O)C(=O)N[C@@H](CCC(N)=O)C(=O)NC(C)(C)C(=O)N[C@@H](CC(C)C)C(=O)N[C@@H](CC(C)C)C(=O)N[C@@H](CCCCN)C(=O)N[C@@H](CCC(N)=O)C(=O)N[C@@H](CCC(=O)O)C(=O)N[C@@H](CCCNC(=N)N)C(=O)N[C@@H](CCC(N)=O)C(=O)N[C@@H](CCCCN)C(=O)N[C@@H](CCCCN)C(=O)N[C@@H](CCC(N)=O)C(=O)N[C@@H](CCCNC(=N)N)C(=O)N[C@@H](CCC(=O)O)C(=O)N[C@@H](CCC(N)=O)C(=O)N[C@@H](C)C(=O)N[C@@H](CCC(=O)O)C(=O)N[C@@H](CCCCN)C(=O)N[C@@H](CC(N)=O)C(=O)NC(C)(C)C(=O)N[C@@H](CCC(N)=O)C(=O)N[C@H](C(=O)N[C@@H](CC(C)C)C(=O)N[C@@H](CCC(=O)O)C(=O)N[C@@H](CCC(N)=O)C(=O)N[C@H](C(N)=O)C(C)C)[C@@H](C)CC)[C@@H](C)CC)C(C)C)C(C)C
# B6: SEQ ID NO 39 (peptide)
# peptide: Ac-IVLSLDVPIKLK([γGlu-C16 diacid])KILLEQEKQKKQREQAETN[Aib]QILAQV-NH2
# SMILES: CC[C@H](C)[C@H](NC(C)=O)C(=O)N[C@H](C(=O)N[C@@H](CC(C)C)C(=O)N[C@@H](CO)C(=O)N[C@@H](CC(C)C)C(=O)N[C@@H](CC(=O)O)C(=O)N[C@H](C(=O)N1CCC[C@H]1C(=O)N[C@H](C(=O)N[C@@H](CCCCN)C(=O)N[C@@H](CC(C)C)C(=O)N[C@@H](CCCCNC(=O)CC[C@H](NC(=O)CCCCCCCCCCCCCCC(=O)O)C(=O)O)C(=O)N[C@@H](CCCCN)C(=O)N[C@H](C(=O)N[C@@H](CC(C)C)C(=O)N[C@@H](CC(C)C)C(=O)N[C@@H](CCC(=O)O)C(=O)N[C@@H](CCC(N)=O)C(=O)N[C@@H](CCC(=O)O)C(=O)N[C@@H](CCCCN)C(=O)N[C@@H](CCC(N)=O)C(=O)N[C@@H](CCCCN)C(=O)N[C@@H](CCCCN)C(=O)N[C@@H](CCC(N)=O)C(=O)N[C@@H](CCCNC(=N)N)C(=O)N[C@@H](CCC(=O)O)C(=O)N[C@@H](CCC(N)=O)C(=O)N[C@@H](C)C(=O)N[C@@H](CCC(=O)O)C(=O)N[C@H](C(=O)N[C@@H](CC(N)=O)C(=O)NC(C)(C)C(=O)N[C@@H](CCC(N)=O)C(=O)N[C@H](C(=O)N[C@@H](CC(C)C)C(=O)N[C@@H](C)C(=O)N[C@@H](CCC(N)=O)C(=O)N[C@H](C(N)=O)C(C)C)[C@@H](C)CC)[C@@H](C)O)[C@@H](C)CC)[C@@H](C)CC)C(C)C)C(C)C
# Molecular target: human corticotropin-releasing factor 2a (CRF2a receptor) (human), Q13324
# Sequence (Q13324 20-411): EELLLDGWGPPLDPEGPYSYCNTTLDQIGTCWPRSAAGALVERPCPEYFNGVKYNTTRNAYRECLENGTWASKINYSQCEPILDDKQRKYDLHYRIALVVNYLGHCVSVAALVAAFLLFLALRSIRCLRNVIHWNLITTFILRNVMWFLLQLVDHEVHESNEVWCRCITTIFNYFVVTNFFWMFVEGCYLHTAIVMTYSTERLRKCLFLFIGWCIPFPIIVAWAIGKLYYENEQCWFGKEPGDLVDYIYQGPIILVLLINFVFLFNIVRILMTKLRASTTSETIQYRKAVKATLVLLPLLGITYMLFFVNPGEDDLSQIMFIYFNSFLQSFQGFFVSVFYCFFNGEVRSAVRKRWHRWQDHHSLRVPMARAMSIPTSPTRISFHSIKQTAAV
# Test: cell-based or functional assay
row,EC50 [nM] (cAMP),Binder
1,5.02,B1
2,18.6,B2
3,3.17,B3
4,0.28,B4
5,1.09,B5
6,0.53,B6

# Molecular target: T1, CRF1R receptor (UniProt P34998 24-415, limits assumed)
# T1 sequence (looked up): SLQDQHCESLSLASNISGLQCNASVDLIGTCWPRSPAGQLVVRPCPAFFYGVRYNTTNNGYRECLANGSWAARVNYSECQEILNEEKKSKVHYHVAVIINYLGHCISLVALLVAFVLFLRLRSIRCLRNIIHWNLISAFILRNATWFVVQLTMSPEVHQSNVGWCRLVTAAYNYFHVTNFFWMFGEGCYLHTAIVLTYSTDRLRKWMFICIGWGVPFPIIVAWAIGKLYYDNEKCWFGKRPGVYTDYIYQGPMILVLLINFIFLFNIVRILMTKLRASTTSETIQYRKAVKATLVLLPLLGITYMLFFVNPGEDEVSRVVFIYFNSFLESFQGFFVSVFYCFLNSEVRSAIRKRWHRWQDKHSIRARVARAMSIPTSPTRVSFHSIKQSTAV
# Test: cell-based or functional assay
EC50 [nM],Emax (% I) [%],Binder
> 250,6,B1
> 250,1,B2
–,0,B3
–,6,B4
–,3,B5
–,2,B6
